14 sequences from a protein production outcome set (Wang et al. 2014) can be followed below.

This data set in a line: label from the status in PepcDB records.

Take “MPQKTKDTPMMRQYFAVKNQYPDAFLFYRLGDFYEMFFDDAIKGAQLLELTLTTRNHSAENPIPMCGVPHRAVQNYIDILVDKGYKVAICEQMEDPKLAKGMVKREVIQLVTPGTTLERGAEQAKTNNYLTALIQRDQQYGFAYADLSTGELKTSVLTTNDTLINELTSLQTKEIVVDDSVASDLRDQIKTLGILISEQNNVTPQAQLSYLTQDLTVDLEQQVVERLLMYITVTQKRSLAHLQKAIAYEPSYFLKLDHNSKYNLELMKSIRTGKKQGTLLWLLDETKTAMGGRLLKQWIDRPLIVKADIETRQNKVATLLDHYFERSNLQEELTKVYDLERLAGRVAFGSVNGRDLVQLKTSLRQIPKIRYILSELDTQVFNDEVNQLDPVEDVADLIDAAIVEDAPLSVTDGGVIKDGYNEQLDQYRDAMNNGKKWIAELEAQERATTGIKNLKIGFNRVFGYYIEVTKANLAQLPKDRYERKQTLTNAERFSTPELKSHESLILEAESHSTDLEYQLFTKVRETVKKAIQRLQTLAKAVAAIDVLQSFAVVSEDYHFVRPKLTKSHDLKIVDGRHPVVEKVMGNQSYVPNNVTMSPDETVLLITGPNMSGKSTYMRQLALTVIMAQIGCFVPAKSAQLPIFDQIFTRIGATDDLISGQSTFMVEMQEANNALQHATANSLVLFDEIGRGTATYDGMALAQAIIEFVHNHIHAKTLFSTHYHELTALDQELSGLRNVHVGATEQDGELVFLHKVEPGAADKSYGVHVAKLAGMPTSLLERANKILTSLENQTSTVSTTAASIAASDAANSVAPNTAASMPVEAADESQPVESETPVAEAPVAEAGDEQLSLFAEPAVTDAKGEKVLQQLKTLNLMAMTPMDVMNQLYKWQQKLGK”: the protein production entry is “failed”.

Consider “MPQNQLVITIIDESGSKQLKFSKNLKRNLIISVVIFLLIVGLGVGFLKFLIAKMDTMTAERNAVLRDFRDLYQKNYTLTKEIKNKREELFIVGQKIRTIESLIEVKRGANGGVHLYDEVDLDNLNLAQKHLALMLIPNGMPIKTYSAIKPTKERNHPIKKIKGVESGIDFIAPLNTPVYASADGIVDFVKTNSNVGYGNLVRIEHAFGFSSIYTHLDHVNVQPKSFIQKGQLIGYSGKSGNSGGEKLHYEVRFLGKILDAQKFLAWDLDHFQSALEENKFIEWKNLFWVLEDIVQLQEHVDKDALISQ”, for which the protein production entry was “failed”.

With “MPQVDPELFDRGQFQAELALKSSPIAAFKKAIRQFREVLDNRFNSGRDIRRLIEDRAWCVDQILQQAWQRFDWGDDADIALVAVGGYGRGELHPYSDVDLLILLDSEDQESFREPIEGFLTLLWDIGLEVGQSVRSVQQCAEEARADLTVITTLMECRTICGPDSLRQRMLQVTGSAHMWPSKEFFLAKRHEQQRRHAKYNDTEYNLEPNVKGSPGGLRDIQTILWMARRQFGSLNLHALVREGFLVESECSMLASSQEFLWRVRYALHMLAGRAEDRLLFDHQRSIARLFGYEDNDVKLAVERFMQKYYRVVMAISELNDLIIQHFEEVILPCEQPVQIQPLNSRFQLRDGYIEVTHPNVFKRTPFALLEIFVLMAQHPEIKGVRADTIRLLRDSRHLIDDEFRHDIRNTSLFIELFKSSQGIHRNLRRMNRYGILGRYLPEFGHIIGQMQHDLFHIYTVDAHTLNLIKHLRKLNRPEMAEKYPLASKIIDRLPKPELIYIAGLYHDIAKGRGGDHSELGAVDAEAFCQSHQLPLWDTQLVSWLVQNHLVMSTTAQRKDLSDPQVIFDFAQLVGDQTHLDYLYVLTVADINATNPTLWNSWRASLLRQLYTETKRALRRGLENPVDREEQIRQTQTAALDQLVRNGIDQDDAEQLWSQLGDDYFLRHTAGDVAWHTEAILQHPDDGTPLVLIKETTQREFESGSQIFIYAADQHDFFAVTVAAMDQLNLSIQDARIITSTSQFTLDTYIVLDADGDSIGNNPERIAEIREGLIDALKNPDDYPTIIQRRVPRQLKHFAFAPQVTISTDALRQVSVLEVIAPDRPGLLARIGGIFLDFDLSVQNAKIATLGERVEDVFYITDARNQPLADPDLCKRLQAALVEQLSQDNGRDT”, the protein production entry was “failed”.

For “MPRFRSVFLALLVVPLVDAVFLVFVAGELGWQLTVALVVLTALLGTLFVRAEGRATLSRLQASVARGDPPTNELVDGGLLIAAGAFLLTPGLVTDALGFLIVIPVTRVAFRWGVKRYVTPKLDAKTGGFVSGNVYTFGFPGGDGGAGGDPRSGFGGGAGDGDDDTINLGDDAYDVSFEDDADGDQ”, the protein production entry is “failed”.

Regarding “MPRKNQDLYHHYPQKDRKFTMYKLSEKGEQIREMFSDIAPRYDFLNRLLSFGIDRRWRRIAVQCARWSEGGKILDVATGTGDVALEIARQTPDSVSIIGIDITEGMVVLGREKVAQSPYARRITLEIAPCEAIPFPDNTFDSVTIAFGIRNVVDRRQGLAEMQRILKPGGRAVILEFSTPRSQFFKRVYYFYFLRLLPAIGGLFSNFSAYKYLPDSVLEFPSQEEFKTLMRSVGFHSTTHRDLTFGIATIYTGEKAAQN”, the protein production result was “failed”.

Turning to “MPRRSALLGQPLFRLLAINLAIGVTIAALLLGGLLYLNPGHLRDLIFADDSPGTALGLLLFGFVVTFGSAAMGSAIMAMGSDLRGGGKGGRKLALPIEMIPGAKAIPVRAEHGARAVRRHGSL”, the protein production entry is “failed”.

Take “MPRYKTVEQVLSLMKDRTRVRNIGIIAHVDHGKTTTSDTLLAASGIISPKVAGEALALDYLNVEQQRGITVKAANISLYHEAEGKGYVINLIDTPGHVDFSGRVTRSLRVLDGSIVVVDAVEGIMTQTETVLRQSLEERVRPILFINKVDRLVKELKLSPQEMLNRLLDIIRQVNNLIDMYGEPEFKEKWMINPQAGNVIFGSAKDKWGFSLPMAQKKGINMKNVIDAYTASDKSKLEELAAQAPINEALLDAAIKFVPNPIEAQKYRIPKIWKGDLDNELAKAMLNADPNGPIVFMITDMKVDPHAGLVATGRVFSGTLRSGEELWLVNAKTSQRILQVSLYMGPTRELAEEIPAGNIAAVLGLDRARSGETAISVGFSNVQGSFERLHYISEPVVTIAVEPKNPKDLTKMIDALRKLSIEDPNLVVKINEETGEYLLSGMGFLHLEVSLQLLRENYGIDVVTTPPIVVYRESIRAKSQVFEGKSPNKHNKFYLSVEPLNDKTIELISNGTIREDMDSKEMAKILRDEASWDYDEAKRIIAIDENVNVFVDLTSGVQHLREVMDTVLQGFRLAMKEGPLAHEPIRGVKVILHDAVIHEDPAHRGPAQIYPAVRNSIFAGFLTSRPTLLEPIQKLDIRVPADLIGNVTAVITRKRGKILDVSQIANMSRITAEIPVSESYDMASELRGSTGGRAFWGTEFSRWAPVPDSILLDVVTKIRERKGLPKELPKVEDFLS”: the protein production result is on record as “failed”.

With “MPSCAVEGNPSVHTPHPPRPLYPPRPAMPPGESDESLGGQLRGRPEGAAPHPVALLMARHWESTYDYAVICLASSANVASIVTAGAFQQVVGRLMRSGSAAAVRPALLVAVRDTVREWSAEERISGVLPELRKPAGGRGMRAAKSLTPENRVLAERSFLTLPGLSRCLLWHTEVEAESISVPAGLSGIGTDTATAALEQAREQFREGCVRAHRELAPTKECRLYNRLLDVPIRRGGALLPDVQRHLLGCRFCRNAAEQLSHFEGALGGLLAEAVLGWGARRYLESRPGRTPYGGRARGVSGSGGRPGSGGRHRLLAQIPAPGRRTPVGERGARAVLTGVGIASAAVLATFLVTGLWSNDDGNVDPTASTSASGGRTTVLPTPGSQIPPTVSSPPDSAGLPTTPRQTRLRNLAADLCLDVRGEAKAGAGTKLAVCSSAWTQQWTYEKDGLLRSVADPELCLDSGAVDGVAELGRCVAESSAHGGDVRYDLTVQGEVLSRRKGSLAVTPGNTDPDADIVVKVRDGSDKQRWLTDSPSDQPESLSIAGTTPPSATPATDAPAATPAPTPVPASPGTRLTDAPVASSAPPSENYGERRSLTVTDTSTPEPVLPLTVHLPDLLGEIGVGL”, the protein production entry is recorded as “failed”.

For the sequence “MPSETTEHKTGPAVTVVIVSYQSGPTLEPCLARLAAQTFRDFETILIDNFSTDGAPQAAAKAHPWVDFVEAGANLGFAAGNNLAARRAKGRWLVLLNPDAYAEPDWLEELMAGAARHPTVKSFASLQLSADRPGLLDGAGDNVTSAGIPFRGGYGRKPPAVLPEGEVFSACGAAMLIDRDLFLSVGGFDERYFCYCEDVDLGYRLRLYGEPTLLLPKAKVAHVGSASTGVRSDFSIFHGSRNRVWTFLKNTPGWLLPVTLPLHVAVTAGLLLLHWRRGDVAPAIRGIRAALKREDLDQVMADRRLIQARRKASPGAILRVMSIDPAAFIGRRFVIRKWRGA”, the protein production entry is “failed”.

In the case of “MPSGRTHTKINLISLPVVLFMLFSYGLTNFDFLLTFAIGFLVGTTFLTPDLDTYSNAYNKWGFLRIFWYPYKKVMPHRSFFTHTIILGDVIRIAYMLIVFSPFLFLLNVIALDGNLIEMAKEHEVEIVTFVMGIVVASTLHIIADKVNTRRKKMMRKKKKRRR”, the protein production entry is “failed”.

As for “MPSLLETKGPKITLGLDLRGGLNMLLGVQTDEALKNKYLSLASALEYNAKKQNILLKDIKSNLEGISFELLDEDEAKKLDALLLELQGHSQFEIKKEAGFYSVNLTPLEQEELRKNTILQVIGIIRNRLDQFGLAEPVVIQQGKEEISVQLPGIKTLEEERRAKDLISRSAHLQMMAVDEEHNKDAMKMTDLEAQKLGSVLLSDVEMGGKILLKAIPILDGEMLTDAKVVYDQNNQPVVSFTLDAQGAKIFGDFSGANVGKRMAIVLDNKVYSAPVIRERIGGGSGQISGNFSVAQASDLAIALRSGAMSAPIQVLEKRIIGPSLGKDSVKTSIIALVGGFILVMGFMVLYYSMAGVIACLALVVNLFLIVAVMAIFGATLTLPGMAGIVLTVGIAVDANIIINERIREVLRENEGIAKAIHLGYINASRAIFDSNITSLIASVLLYAYGTGAIKGFALTTGIGILASIITAIVGTQGIYQALLPKLTQTKSLYFWFGVNKRA”, the protein production result is given as “failed”.

Turning to “MPSLPASAESLLPPTLDESTRLEVLRGLCLLDSPPDPVFDTVAAMAARSLDAEIAVVSLVDEHRQWFKARIGLEARETPRSQAFCAHAIRSDEVMVVPDAQLDPRFCDNPLVLGPPFIRFYAGAPLKLRDGHRIGTLCVIGTSPRPGLDQAAITQLEGLRDLAVLRVENLRSTTYRDGPTGLPNRSRFSEDLDTWLSQRDTAPATTAVAIDVCGSDYFRDMVKALGWEYADGYIALAQRRLAAYLPGGTLLYRLDPTTFGFLAQAEGQRLATLCTKVSKAFTEPLEHQGIPHTAVASIGAVSLQSSYGAADTIRSLTTAVDIARERCLPWSMYERKHDVAQRNTFRLLAALPAALDSSSQLRLHFQPRVDLHDHRCVGVEALLRWQHPMIGPVMPSDFIPMAEKTALINRITAWVIDNGIAQAARWQQQGLDFNLALNVSAADLDRPGFAGLLRRGLDRHKLDPRRLEIEFTESAMIRHPDHLAEQLAAIAALGVHIAIDDFGTGYSNFSYLKQLPASSLKIDQSFIRSLPDSRTDRTLVPAMIQLGHSLGQRVVAEGIESAEAYAQLRAWGCDEGQGYWIAKPMPAAALETWLETPWHEQHAAPVNLLAASLAAARV”, the protein production entry is reported as “failed”.

Turning to “MPSMPFLTRPVLAAGTFSGAPQPTLPTGDGLVLRPWRTEDAPAVHVAFQDPVMHQWHARAADSEEEVRGWITEWQGAWERERGVQWAVADAADDRLLGRVALREWVLGDGVAEVAYWTTADARGRGVAARATRTLAHWALDEIGFQRLELLHAVANDASCRVAQKTGFALEGTKRKAVLHPDGWHDMHLHARVRGD”, the protein production result is “failed”.

“MPSPARTLLLAFVSAWFLLGGLGHFVFTDFFVGIVPPYVPWPLAAVWVSGVFELLGAAALLVPAWRRLAACGLFILTLCVTPANLYMWQHPDLFPSFPPTLLAARLALQAFLLGCILALMLARDEAPLARR”: the protein production entry was “failed”.
